From paper PMC13534702, “Polo/PLK1 phosphorylation relieves Centrosomin/Cnn autoinhibition to promote centrosome scaffold assembly” (The EMBO Journal, 2026) come the findings set out here.

First the molecules themselves.
B1: Drosophila Cnn CM2 domain (domain or fragment, Drosophila melanogaster, UniProt P54623-2 1082-1148, looked up)
chain: HDCAKVDLENAELRRKLIRTKRAFEDTYEKLRMANKAKAQVEKDIKNQILKTHNVLRNVRSNMENEL
notes: the EM methods print 1077-1148; The methods say that the N-terminal tag was cleaved for SEC-MALS, crystallisation or further use; also called DmCM2; fly CM2; source: E. coli BL21 (DE3), purified
B2: MBP-Cnn_(490-608) WT (domain or fragment, Drosophila melanogaster, UniProt P54623-2 490-608, looked up)
chain: DQQNSAVIGQLRLELQQARTEVETADKWRLECVDVCSVLTNRLEELAGFLNSLLKHKDVLGVLAADRRNAMRKAVDRSLDLSKSLNMTLNITATSLADQSLAQLCNLSEILYTEGDASH
notes: I take the same protein to have been used there; source: E. coli BL21 (DE3), purified; not shown: MBP, N-terminal, kept
B3: MBP-Cnn_(490-608) 2A (S567A/S571A) (domain or fragment, Drosophila melanogaster, UniProt P54623-2 490-608, looked up)
chain: B2 chain with S78A, S82A
notes: also called 2A-mutant PReM; source: E. coli BL21 (DE3), purified; not shown: MBP, N-terminal, kept
B4: Full-length SPD-5-GFP, P91349 1-1198 (natural protein)
chain: MEDNSVLNEDSNLEHVEGQPRRSMSQPVLNVEGDKRTSSTSATQQQVLSGAFSSADVRSIPIIQTWEENKALKTKITILRGELQMYQRRYSEAKEASQKRVKEVMDDYVDLKLGQENVQEKMEQYKLMEEDLLAMQSRIETSEDNFARQMKEFEAQKHAMEERIKELELSATDANNTTVGSFRGTLDDILKKNDPDFTLTSGYEERKINDLEAKLLSEIDKVAELEDHIQQLRQELDDQSARLADSENVRAQLEAATGQGILGAAGNAMVPNSTFMIGNGRESQTRDQLNYIDDLETKLADAKKENDKARQALVEYMNKCSKLEHEIRTMVKNSTFDSSSMLLGGQTSDELKIQIGKVNGELNVLRAENRELRIRCDQLTGGDGNLSISLGQSRLMAGIATNDVDSIGQGNETGGTSMRILPRESQLDDLEESKLPLMDTSSAVRNQQQFASMWEDFESVKDSLQNNHNDTLEGSFNSSMPPPGRDATQSFLSQKSFKNSPIVMQKPKSLHLHLKSHQSEGAGEQIQNNSFSTKTASPHVSQSHIPILHDMQQILDSSAMFLEGQHDVAVNVEQMQEKMSQIREALARLFERLKSSAALFEEILERMGSSDPNADKIKKMKLAFETSINDKLNVSAILEAAEKDLHNMSLNFSILEKSIVSQAAEASRRFTIAPDAEDVASSSLLNASYSPLFKFTSNSDIVEKLQNEVSELKNELEMARTRDMRSPLNGSSGRLSDVQINTNRMFEDLEVSEATLQKAKEENSTLKSQFAELEANLHQVNSKLGEVRCELNEALARVDGEQETRVKAENALEEARQLISSLKHEENELKKTITDMGMRLNEAKKSDEFLKSELSTALEEEKKSQNLADELSEELNGWRMRTKEAENKVEHASSEKSEMLERIVHLETEMEKLSTSEIAADYCSTKMTERKKEIELAKYREDFENAAIVGLERISKEISELTKKTLKAKIIPSNISSIQLVCDELCRRLSREREQQHEYAKVMRDVNEKIEKLQLEKDALEHELKMMSSNNENVPPVGTSVSGMPTKTSNQKCAQPHYTSPTRQLLHESTMAVDAIVQKLKKTHNMSGMGPELKETIGNVINESRVLRDFLHQKLILFKGIDMSNWKNETVDQLITDLGQLHQDNLMLEEQIKKYKKELKLTKSAIPTLGVEFQDRIKTEIGKIATDMGGAVKEIRKK
B5: Full-length Cnn-GFP (natural protein, Drosophila melanogaster, UniProt P54623-2 1-1148, looked up)
chain: MDQSKQVLRDYCGDGNGTCASSLKEITLIETVTSFLEENGAAEIDRRVLRKLAEALSKSIDDTSPGALQDVTMENSYASFDVPRPPGGGNSPLPSQGRSVRELEEQMSALRKENFNLKLRIYFLEEGQPGARADSSTESLSKQLIDAKIEIATLRKTVDVKMELLKDAARAISHHEELQRKADIDSQAIIDELQEQIHAYQMAESGGQPVENIAKTRKMLRLESEVQRLEEELVNIEARNVAARNELEFMLAERLESLTACEGKIQELAIKNSELVERLEKETASAESSNANRDLGAQLADKICELQEAQEKLKERERIHEQACRTIQKLMQKLSSQEKEIKKLNQENEQSANKENDCAKTVISPSSSGRSMSDNEASSQEMSTNLRVRYELKINEQEEKIKQLQTEVKKKTANLQNLVNKELWEKNREVERLTKLLANQQKTLPQISEESAGEADLQQSFTEAEYMRALERNKLLQRKVDVLFQRLADDQQNSAVIGQLRLELQQARTEVETADKWRLECVDVCSVLTNRLEELAGFLNSLLKHKDVLGVLAADRRNAMRKAVDRSLDLSKSLNMTLNITATSLADQSLAQLCNLSEILYTEGDASHKTFNSHEELHAATSMAPTVENLKAENKALKKELEKRRSSEGQRKERRSLPLPSQQFDNQSESEAWSEPDRKVSLARIGLDETSNSLAAPEQAISESESEGRTCATRQDRNRNSERIAQLEEQIAQKDERMLNVQCQMVELDNRYKQEQLRCLDITQQLEQLRAINEALTADLHAIGSHEEERMVELQRQLELKNQQIDQLKLAHSTLTADSQITEMELQALQQQMQEIEQLHADSVETLQSQLQKLKLDAVQQLEEHERLHREALERDWVALTTYQEQAQQLLELQRSLDYHQENEKELKQTLVENELATRALKKQLDESTLQASKAVMERTKAYNDKLQLEKRSEELRLQLEALKEEHQKLLQKRSNSSDVSQSGYTSEEVAVPMGPPSGQATTCKQAAAAVLGQRVNTSSPDLGIESDAGRISSVEVSNAQRAMLKTVEMKTEGSASPKAKSEESTSPDSKSNVATGAATVHDCAKVDLENAELRRKLIRTKRAFEDTYEKLRMANKAKAQVEKDIKNQILKTHNVLRNVRSNMENEL
notes: Centrosomin (Cnn), Drosophila melanogaster, full length, synthesised gene; also called Cnn-WT; not shown: MBP, N-terminal, cleaved; mGFP, C-terminal, kept; His10, C-terminal, cleaved

In data set [1] the target is T1, Cnn_(490-608), tag cleaved (SEC-MALS) (Drosophila melanogaster, UniProt P54623-2 490-608).
T1 construct: also called PReMΔH1ΔNTH2; source: E. coli BL21 (DE3), purified, tag cleaved for SEC-MALS; not shown: His6, N-terminal, cleaved; MBP, N-terminal, cleaved
T1 sequence (looked up): B2 chain
Put plainly: SEC-MALS; Cnn 490-608 mixed with CM2; Superdex 75 or Superdex 200 10/300 Increase; 20 mM Tris pH 7.5, 150 mM NaCl, 0.5 mM TCEP; 0.5 mL/min; fraction checked on an SDS gel. The settings on record: both partners purified. (In general: Size exclusion chromatography separates by hydrodynamic size, large species first.)

Data set [2] deals with B2. Put plainly: SEC; PReM domain (Cnn 490-608) variants mixed with CM2; fractions checked on SDS gels. As to conditions: both partners purified.
The target in data set [3] is T2, MBP-Cnn_(490-608) 2E (S567E/S571E) (Drosophila melanogaster, UniProt P54623-2 490-608, S567E | S571E).
T2 construct: also called 2E mutant; source: E. coli BL21 (DE3), purified; not shown: MBP, N-terminal, kept
T2 sequence (looked up): B2 chain with S78E, S82E
Described as above. As to conditions: both partners purified.

Data set [4] concerns the molecule itself. Put plainly: SEC; MBP-Cnn 490-608 variants run alone; absorbance at 280 nm; size judged from the elution volume.
Data set [5] deals with T3, Full-length SPD-5-GFP (C. elegans), P91349.
T3 chain: B4 chain
Put plainly: mass photometry; full-length GFP fusions in solution; 20 mM HEPES, 150 mM KCl, pH 7.25; low nanomolar concentration (10 nM final by the procedure of the standards). The settings on record: remark: other sources report otherwise.

Data set [6] deals with the molecule itself. Described as above.

Where a chain is given by its changes, count along the chain named. Numbers in names are those of the source.

B1: the binding result in data set [1], in data set [2] and in data set [3] was “binds” throughout. In the case of B2, in data set [4], the “stoichiometry N” value stood at 2. On the same count and under the same terms, with B3 the figure was 2. In turn, B4 had a stoichiometry N in data set [5] of 2. Consider B5, for which the “stoichiometry N” value in data set [6] amounted to 2.

Broadly, the stoichiometry N is a count of units in the complex or per binding partner.
